B1: PKD2L1 (parent)
chain: VFIFYYVVEEILELHIHRLRYLSS
B2: KRT18 (parent)
chain: RVRSLETENRRLESKIREHLEKKG
B3: KCNAB2 (parent)
chain: YVDVVFANRPDPNTPMEETVRAMT

Variants of: B1
Test: protein stability index of a GFP-peptide fusion (GPS, HEK-293T) (PSI 1-6); higher = more stable
Conditions: c terminus: a fixed tail appended
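Also: lentivirally expressed fusions sorted by FACS into six bins by GFP to DsRed ratio, PSI derived from sequencing read proportions per bin multiplied by bin number.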

Protein stability index: each site, then its substitutions
Y5: P 1.66; S 2.86; W 2.24; E 2.14; G 1.31; H 3.91; N 2.63; M 2.79; D 3.1; T 2.27; K 3.67; F 2.11
F4: G 3.56; M 2.56; K 2.57; V 3.48; N 2.21; I 1.48; Q 2.99; S 2.7; Y 2.36; A 4; W 1.29; H 2.09
F2: R 3.23; N 3.7; Y 3.06; H 1.63; A 1.52; E 1.5; G 3.34; K 2.56; P 2; S 2.65; T 3.77; M 4.81; Q 3.67; I 3.92; L 2.11
S24: E 2.21; N 3.95; H 3.15; K 1.12; P 2.94; F 2.37; L 2.58; T 2.47
S23: C 1.99; I 4; V 3.04; T 3.81; N 1.82; E 2.12; Q 3.46; R 4.53; Y 2.19; F 2.05
I3: M 3.13; H 1.62; Y 3.43; P 3.06; S 2.73; R 3.57; E 4; L 2.25; A 1.69; D 3.59; G 2.35; T 1.54; N 3.08; F 2.89
V8: Q 1.9; W 2.57; N 2.16; M 3.67; H 2.51; L 2.74; I 3.22; D 1.41; G 4.19; F 3.06; T 1.93
R18: E 2.76; H 1.63; V 1.65; Q 2.37; C 2.63; K 2.64; L 3.78; M 3.01
R20: G 2.12; I 1.98; F 2.85; W 2.38; V 3.27; D 4.23; K 2.34; Y 2.76; Q 1.89; T 3.91; L 2.38; H 2.34
L22: F 3.34; C 3.65; G 2.34; K 3.19; N 1.32; P 4.59; T 3.77; I 3.59; E 2.43
E9: Q 2.61; Y 1.67; W 4.55; P 2.49; N 2.21; C 1.88; R 4; D 3.91; G 1.71; I 3.16; K 3.5; S 1.63
I16: S 3.37; L 2.92; M 2.9; W 3.5; G 3.3; Y 2.18; F 3.25; C 3.5; E 2.46; R 2.6; A 2.11; N 3.35; D 3.73; K 2.34
I11: P 1.89; H 1.24; C 4.54; S 3.09; K 2.51; D 2.57; E 3.87; T 2.64; Q 3.96; V 3.46; M 2.46; N 3.75; Y 2.68; F 3.73; G 2.73
V1: Y 2.76; F 1.49; G 3; P 2.44; K 2.63; N 2.89; S 1.97; L 2.15; H 2.21; R 2.23; W 2.35; C 1.97
H17: S 3.69; P 2.54; K 2.13; I 2.97; Q 4.68; G 4.03; V 4.2; M 3.93; D 3; F 2.87; E 1.77; Y 2.69; A 2.18; L 2.14
Y6: K 2.12; T 3.44; M 2.17; P 1.54; R 2.78; L 3.99; D 2.42; A 1.41; S 4.37; E 1.79; I 2.85; N 2.01; H 2.85; F 1.65; W 3.85
E10: N 2.86; T 1.62; P 2.76; D 2.75; L 2.35; R 2.41; I 2.56; H 2.68; C 1.36; A 3.28; W 2.69
L14: C 2.19; P 3.5; W 1.99; R 2.59; T 4.48; E 2.14; K 2.29; V 3.38; S 2.8; I 2.22; D 1.93; H 2.69; M 2.66; N 3.64; Y 2.14
L19: W 3.75; N 2.31; T 4.02; D 2.8; C 2.7; M 2.53
L12: W 2.15; G 1.89; T 3.03; H 3.78; F 3.21; C 2.92; I 2.21; A 2.33; M 2.73; P 1.95; K 2.59; Q 3.48; N 2.41; D 2.63; E 2.76; R 2.27; Y 2.89
V7: G 2.25; S 4.39; D 3.12; C 3.58; K 3.16; H 3.16; W 2.54; F 1.93; N 2.13; A 4.67; Y 1.75; P 2.85; I 2.11; Q 3.24
Y21: V 3.28; M 4.01; P 3.02; K 2.84; L 2.06; E 2.27; F 3.66; R 1.55; G 3.65; T 3.04; H 2.96; N 1.61; Q 3.68; D 1.89
H15: P 3.51; M 3.1; V 2.21; T 2.71; N 3.63; Y 3.19; C 2.86; D 2.24; W 2.13; R 2.97
E13: R 3.68; L 3.25; C 3.03; K 2.36; M 2.72; W 3.26; F 3.37; D 2.04; V 3.39; S 1.92; P 2.44; H 3.19; I 3.04; T 2.24; Y 1.93

Variants of: B2
Test: as above
Conditions: c terminus: a fixed tail appended

Protein stability index: each site, then its substitutions
V2: Q 4.44
N9: D 5.09
K22: G 4.06
E8: G 4.42

Variants of: B3
Test: as above
Conditions: c terminus: a fixed tail appended

Protein stability index, by site and new letter:
V2: A 2.96; N 4.51; H 2.39; I 2.07; F 2.81; L 3.09; M 3.61; C 2.34; D 4.91; S 4.24; R 4.13; K 4.33; E 4.98; Q 3.32; G 3.76; P 3.69
Y1: G 4.12; V 3.15; M 3.69; W 1.74; N 4.65; C 2.52; A 4.19; I 2.7; S 4.28; E 4.6; D 4.52; T 4.31; K 3.77; F 1.94; H 4.05; L 3.4; P 4.42; Q 4.06; R 3.55
